Reference: the supplement of paper PMC9876800

Test system: peptide library, one residue held at a place counted from the S/T acceptor
Test: relative phosphorylation of the sub-library (ratio to the mean residue at this position); higher = residue favoured
Settings: human
In short: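 Purified recombinant kinases (human or orthologue constructs) were incubated in 384-well plates with biotinylated degenerate peptide sub-libraries, each fixing one residue at one position around a central Ser/Thr. Peptides were at 50 μM, with 50 μM ATP spiked with γ-32P-ATP, for 90 min under kinase-specific conditions. Spots on streptavidin membranes were phosphorimaged and quantified by densitometry. Relative sub-library phosphorylation is a ratio to the mean residue at that position.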

SMG1, construct: Full length, sequence (Q96Q15 whole entry, looked up): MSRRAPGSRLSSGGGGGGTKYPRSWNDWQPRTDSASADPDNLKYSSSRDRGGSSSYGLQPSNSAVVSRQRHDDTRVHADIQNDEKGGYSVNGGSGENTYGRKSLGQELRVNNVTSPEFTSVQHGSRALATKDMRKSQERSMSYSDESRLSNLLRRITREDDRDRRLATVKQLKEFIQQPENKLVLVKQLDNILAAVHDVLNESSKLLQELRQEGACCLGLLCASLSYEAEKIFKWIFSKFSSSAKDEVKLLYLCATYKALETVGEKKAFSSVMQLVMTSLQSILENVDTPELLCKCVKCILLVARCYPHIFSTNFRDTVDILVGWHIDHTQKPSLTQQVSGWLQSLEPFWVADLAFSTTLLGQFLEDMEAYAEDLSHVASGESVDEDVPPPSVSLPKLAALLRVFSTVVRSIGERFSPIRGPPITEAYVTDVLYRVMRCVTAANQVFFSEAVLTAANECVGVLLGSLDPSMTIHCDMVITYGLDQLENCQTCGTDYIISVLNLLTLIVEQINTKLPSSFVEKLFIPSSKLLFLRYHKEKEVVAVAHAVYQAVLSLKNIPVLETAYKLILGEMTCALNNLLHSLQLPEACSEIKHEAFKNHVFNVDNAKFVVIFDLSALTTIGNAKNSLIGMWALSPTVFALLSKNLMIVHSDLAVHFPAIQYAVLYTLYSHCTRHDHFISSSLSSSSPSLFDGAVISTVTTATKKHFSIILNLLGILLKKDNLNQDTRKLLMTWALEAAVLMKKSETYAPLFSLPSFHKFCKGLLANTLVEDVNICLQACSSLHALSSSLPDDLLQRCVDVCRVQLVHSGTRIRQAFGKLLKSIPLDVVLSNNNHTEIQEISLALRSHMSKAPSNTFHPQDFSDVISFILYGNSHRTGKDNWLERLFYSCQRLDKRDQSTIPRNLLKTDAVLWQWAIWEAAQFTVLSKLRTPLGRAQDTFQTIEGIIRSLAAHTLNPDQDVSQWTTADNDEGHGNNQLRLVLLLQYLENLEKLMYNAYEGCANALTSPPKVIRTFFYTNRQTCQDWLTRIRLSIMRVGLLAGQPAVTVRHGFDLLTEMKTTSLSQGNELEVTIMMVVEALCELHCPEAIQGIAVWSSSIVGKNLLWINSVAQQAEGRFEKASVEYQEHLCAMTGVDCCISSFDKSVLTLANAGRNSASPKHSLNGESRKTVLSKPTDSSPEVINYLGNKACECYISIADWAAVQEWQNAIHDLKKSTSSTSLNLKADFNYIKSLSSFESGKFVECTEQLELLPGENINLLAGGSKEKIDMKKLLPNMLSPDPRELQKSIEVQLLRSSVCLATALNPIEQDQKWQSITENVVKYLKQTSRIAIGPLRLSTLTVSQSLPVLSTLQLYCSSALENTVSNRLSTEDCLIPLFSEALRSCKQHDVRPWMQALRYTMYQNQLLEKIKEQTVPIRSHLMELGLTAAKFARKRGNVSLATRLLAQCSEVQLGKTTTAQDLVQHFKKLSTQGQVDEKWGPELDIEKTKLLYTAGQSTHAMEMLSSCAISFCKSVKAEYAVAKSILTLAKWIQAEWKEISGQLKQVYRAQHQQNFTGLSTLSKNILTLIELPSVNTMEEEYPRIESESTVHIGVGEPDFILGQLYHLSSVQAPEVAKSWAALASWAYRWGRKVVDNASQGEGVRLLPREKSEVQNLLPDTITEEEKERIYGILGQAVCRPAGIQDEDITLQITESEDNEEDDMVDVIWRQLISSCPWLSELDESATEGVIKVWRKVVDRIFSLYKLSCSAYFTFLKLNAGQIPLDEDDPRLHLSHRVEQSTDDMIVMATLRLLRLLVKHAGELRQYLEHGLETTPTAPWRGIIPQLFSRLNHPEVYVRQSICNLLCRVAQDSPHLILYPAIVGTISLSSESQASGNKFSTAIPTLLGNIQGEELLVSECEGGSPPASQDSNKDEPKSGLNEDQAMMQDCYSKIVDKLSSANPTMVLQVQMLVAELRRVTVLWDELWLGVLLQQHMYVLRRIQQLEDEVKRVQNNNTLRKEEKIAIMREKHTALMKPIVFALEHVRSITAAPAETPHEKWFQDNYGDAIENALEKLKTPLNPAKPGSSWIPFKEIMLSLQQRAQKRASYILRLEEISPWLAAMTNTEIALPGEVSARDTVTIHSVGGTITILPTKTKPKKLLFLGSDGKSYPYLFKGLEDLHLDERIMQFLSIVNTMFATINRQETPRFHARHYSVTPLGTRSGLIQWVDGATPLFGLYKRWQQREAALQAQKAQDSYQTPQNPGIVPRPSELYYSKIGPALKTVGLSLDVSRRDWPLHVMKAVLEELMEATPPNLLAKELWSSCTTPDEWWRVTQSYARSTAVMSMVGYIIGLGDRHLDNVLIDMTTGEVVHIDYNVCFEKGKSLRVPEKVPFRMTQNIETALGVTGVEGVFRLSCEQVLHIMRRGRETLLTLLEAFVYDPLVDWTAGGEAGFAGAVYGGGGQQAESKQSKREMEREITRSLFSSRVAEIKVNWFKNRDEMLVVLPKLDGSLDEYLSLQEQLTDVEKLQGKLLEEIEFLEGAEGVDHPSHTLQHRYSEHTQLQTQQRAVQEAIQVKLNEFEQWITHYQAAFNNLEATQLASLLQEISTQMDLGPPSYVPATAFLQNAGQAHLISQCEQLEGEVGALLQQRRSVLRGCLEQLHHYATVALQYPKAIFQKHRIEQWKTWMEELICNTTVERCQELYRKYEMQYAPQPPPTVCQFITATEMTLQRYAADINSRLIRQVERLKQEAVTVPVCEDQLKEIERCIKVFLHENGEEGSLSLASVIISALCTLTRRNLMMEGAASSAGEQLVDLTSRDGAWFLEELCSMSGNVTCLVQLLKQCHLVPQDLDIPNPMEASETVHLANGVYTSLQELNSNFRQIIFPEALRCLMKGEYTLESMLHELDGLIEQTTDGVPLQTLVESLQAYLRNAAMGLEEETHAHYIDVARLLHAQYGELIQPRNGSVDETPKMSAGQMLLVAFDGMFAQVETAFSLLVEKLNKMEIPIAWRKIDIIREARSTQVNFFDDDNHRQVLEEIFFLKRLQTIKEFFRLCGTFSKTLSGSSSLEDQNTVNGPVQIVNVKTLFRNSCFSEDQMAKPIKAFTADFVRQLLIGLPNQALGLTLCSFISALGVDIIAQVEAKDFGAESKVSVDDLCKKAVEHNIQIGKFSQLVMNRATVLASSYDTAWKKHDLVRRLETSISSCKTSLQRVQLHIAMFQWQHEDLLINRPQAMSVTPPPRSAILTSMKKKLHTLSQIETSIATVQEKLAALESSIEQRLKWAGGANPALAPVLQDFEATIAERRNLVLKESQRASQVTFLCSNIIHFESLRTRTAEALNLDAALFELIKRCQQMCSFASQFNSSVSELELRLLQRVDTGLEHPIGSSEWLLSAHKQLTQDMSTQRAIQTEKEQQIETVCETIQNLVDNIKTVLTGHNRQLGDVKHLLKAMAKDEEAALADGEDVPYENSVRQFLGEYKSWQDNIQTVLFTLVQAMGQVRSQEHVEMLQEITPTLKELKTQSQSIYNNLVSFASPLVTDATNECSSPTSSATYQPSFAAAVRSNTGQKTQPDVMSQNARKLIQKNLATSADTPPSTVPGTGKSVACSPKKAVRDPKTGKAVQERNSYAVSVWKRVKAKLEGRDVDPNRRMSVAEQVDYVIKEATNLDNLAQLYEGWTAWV
STK4, construct: Full length, sequence (Q13043 whole entry, looked up): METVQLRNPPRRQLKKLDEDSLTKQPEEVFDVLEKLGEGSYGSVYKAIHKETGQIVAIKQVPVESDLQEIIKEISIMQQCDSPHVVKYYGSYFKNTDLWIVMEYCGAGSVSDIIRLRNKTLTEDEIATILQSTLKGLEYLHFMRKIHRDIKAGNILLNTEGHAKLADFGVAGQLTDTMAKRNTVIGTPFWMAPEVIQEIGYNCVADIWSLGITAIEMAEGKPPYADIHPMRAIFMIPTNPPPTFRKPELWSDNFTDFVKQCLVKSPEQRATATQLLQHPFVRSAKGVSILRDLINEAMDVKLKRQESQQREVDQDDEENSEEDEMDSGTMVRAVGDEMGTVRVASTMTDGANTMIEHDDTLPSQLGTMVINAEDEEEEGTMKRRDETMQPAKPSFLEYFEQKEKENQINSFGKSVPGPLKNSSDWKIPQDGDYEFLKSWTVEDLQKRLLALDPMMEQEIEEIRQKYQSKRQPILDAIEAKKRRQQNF
TGFBR1, construct: aa20-end, sequence (P36897 20-503, looked up): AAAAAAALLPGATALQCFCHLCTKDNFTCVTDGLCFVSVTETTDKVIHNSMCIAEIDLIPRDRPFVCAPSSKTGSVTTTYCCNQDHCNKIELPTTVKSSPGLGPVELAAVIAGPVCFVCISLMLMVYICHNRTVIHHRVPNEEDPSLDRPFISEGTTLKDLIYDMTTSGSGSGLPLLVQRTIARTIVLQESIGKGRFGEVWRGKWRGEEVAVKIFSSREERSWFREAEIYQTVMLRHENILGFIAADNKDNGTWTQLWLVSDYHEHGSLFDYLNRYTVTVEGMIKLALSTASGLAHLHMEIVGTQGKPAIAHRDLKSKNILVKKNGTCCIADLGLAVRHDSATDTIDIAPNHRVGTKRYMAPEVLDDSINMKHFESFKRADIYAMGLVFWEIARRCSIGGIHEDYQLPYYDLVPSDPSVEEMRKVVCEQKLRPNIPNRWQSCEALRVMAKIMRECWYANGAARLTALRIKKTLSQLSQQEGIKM
STK17A, construct: Full length, sequence (Q9UEE5 whole entry, looked up): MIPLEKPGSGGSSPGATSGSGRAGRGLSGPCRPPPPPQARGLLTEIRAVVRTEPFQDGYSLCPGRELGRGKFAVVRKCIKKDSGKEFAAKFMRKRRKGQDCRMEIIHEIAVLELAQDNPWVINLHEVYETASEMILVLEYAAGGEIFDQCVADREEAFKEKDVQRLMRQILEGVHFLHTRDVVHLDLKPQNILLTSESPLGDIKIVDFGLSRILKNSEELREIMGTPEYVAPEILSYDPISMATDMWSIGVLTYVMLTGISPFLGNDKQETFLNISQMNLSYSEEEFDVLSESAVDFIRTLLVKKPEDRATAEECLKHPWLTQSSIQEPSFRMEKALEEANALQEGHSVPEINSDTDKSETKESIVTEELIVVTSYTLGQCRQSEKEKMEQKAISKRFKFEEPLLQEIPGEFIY

SMG1, construct: Full length (from UniProt Q96Q15)
relative phosphorylation
Settings	at +1	at +2	at +3	at +4	at -1	at -2	at -3	at -4	at -5
A fixed	0.603	0.979	1.02	0.957	0.855	1.26	1.21	1.23	1.18
D fixed	0.453	1.12	1.33	0.91	0.348	0.521	0.669	0.674	0.649
E fixed	0.336	0.964	1.15	0.799	0.298	0.645	0.836	0.829	0.693
F fixed	0.533	0.966	1.12	1.28	1.35	1.25	1.44	1.3	1.39
G fixed	0.603	0.924	0.974	0.933	0.646	1.29	1.03	1.26	1.28
H fixed	0.522	0.991	0.858	1.06	0.939	1.04	0.972	1.02	1.07
I fixed	0.539	0.841	0.899	0.883	0.662	1.08	0.874	0.926	0.924
K fixed	0.581	0.711	0.62	0.779	0.725	0.698	0.604	0.614	0.67
L fixed	0.739	0.889	0.853	0.943	4.37	1.2	0.965	1.01	0.958
M fixed	0.55	1.03	1.07	1	2.27	1.26	1.33	1.08	1.03
N fixed	0.841	0.832	0.854	0.806	0.722	0.82	0.766	0.73	0.701
P fixed	0.567	1.39	0.996	1.12	0.558	0.807	0.817	0.855	1
Q fixed	7.53	1.13	0.832	0.867	0.822	0.877	0.83	0.766	0.729
R fixed	0.875	0.818	0.931	0.85	0.615	0.751	0.687	0.677	0.781
V fixed	0.567	0.946	0.913	0.881	0.474	0.996	0.912	0.93	0.964
W fixed	0.545	1.26	1.31	1.53	0.53	1.08	1.36	1.55	1.6
Y fixed	0.613	1.2	1.28	1.39	0.823	1.42	1.7	1.55	1.38
pThr fixed	0.386	1.04	1.82	1.03	0.365	0.661	0.999	1.11	1.1
pTyr fixed	0.416	0.704	1.06	1.41	0.539	1.27	1.71	1.65	1.47

STK4, construct: Full length (from UniProt Q13043)
relative phosphorylation
Settings	at +1	at +2	at +3	at +4	at -1	at -2	at -3	at -4	at -5
A fixed	0.647	0.612	0.745	0.743	0.705	0.763	0.756	0.771	0.964
D fixed	0.276	0.533	0.669	0.779	1.43	1.46	1.24	1.07	1.35
E fixed	0.245	0.413	0.627	0.668	0.881	1.09	0.916	1.12	0.833
F fixed	0.995	0.677	0.965	0.892	0.877	1.66	1.05	1.02	0.98
G fixed	0.641	0.75	0.917	0.987	1.1	0.747	1.07	0.983	0.91
H fixed	0.703	1.33	1.12	1.05	1.26	1.15	1.06	1.27	1.04
I fixed	1.91	0.449	0.682	0.738	0.329	0.507	0.622	0.766	0.581
K fixed	0.639	3.53	1.85	1.5	1.93	0.591	0.963	1.08	1.15
L fixed	2.6	0.759	0.779	1.01	0.822	0.596	0.577	0.749	0.773
M fixed	2.59	0.588	0.673	0.918	0.735	1	0.658	0.742	0.757
N fixed	0.558	1.13	1.21	1.24	1.45	1.28	1.25	1.06	1.02
P fixed	0.196	0.926	1.19	1.13	0.897	0.681	0.992	0.674	1.33
Q fixed	0.685	1.23	1.07	1.3	1.17	1.03	1.35	1.34	1.24
R fixed	0.615	2.29	2.01	1.19	1.33	0.582	0.78	1.01	1.08
V fixed	1.08	0.779	0.702	0.789	0.397	0.561	0.646	0.954	0.861
W fixed	1.79	0.495	0.884	1.27	0.776	1.59	1.63	1.17	1.09
Y fixed	0.816	0.524	0.898	0.793	0.926	1.72	1.45	1.24	1.05
pThr fixed	0.822	1.04	0.958	0.825	0.594	1.02	0.978	0.889	0.769
pTyr fixed	0.627	0.715	0.937	0.899	0.908	2.04	1.39	0.975	1.09

STK17A, construct: Full length (from UniProt Q9UEE5)
relative phosphorylation
Settings	at +1	at +2	at +3	at +4	at -1	at -2	at -3	at -4	at -5
A fixed	0.4	0.562	0.679	0.808	0.636	1.04	0.701	0.927	0.979
D fixed	0.954	0.564	0.686	0.86	0.85	0.657	0.799	1.06	0.922
E fixed	0.984	0.612	1.18	0.917	0.967	0.597	0.681	1.09	0.916
F fixed	4.75	0.832	1.05	0.896	1.11	0.943	0.802	0.772	0.876
G fixed	0.63	0.444	0.889	0.868	0.801	1.2	0.868	1.23	1.11
H fixed	0.502	1.83	1.12	1.15	1.16	1.25	1.02	1.03	1.06
I fixed	0.75	0.709	1.49	0.742	0.621	0.491	0.65	0.586	0.721
K fixed	0.498	1.7	1.08	1.49	1.23	1.32	1.28	1.43	1.63
L fixed	0.678	0.732	0.989	0.713	1.24	0.648	0.783	0.62	0.872
M fixed	1.41	0.787	0.984	0.669	1.19	0.892	1.13	0.798	0.837
N fixed	0.558	0.93	0.733	0.988	1.06	1.05	0.902	1	1.06
P fixed	0.251	0.332	0.539	0.952	0.589	0.673	0.888	0.979	0.993
Q fixed	1.66	1.09	0.815	1	0.931	0.934	0.989	0.782	0.704
R fixed	0.494	2.6	1.17	1.7	1.18	1.8	2.58	1.32	1.38
V fixed	0.53	0.708	1.04	0.693	0.721	0.638	0.56	0.73	0.829
W fixed	0.974	1.16	1.2	1.33	1.07	1.83	1.43	1.81	1.16
Y fixed	0.972	1.41	1.37	1.23	1.64	1.04	0.945	0.842	0.947
pThr fixed	6.24	3.31	1.2	1.45	0.813	0.788	0.9	0.977	0.971
pTyr fixed	1.4	1.6	3.08	1.39	1.61	0.941	1.06	1.17	0.918

TGFBR1, construct: aa20-end (from UniProt P36897)
relative phosphorylation
Settings	at +1	at +2	at +3	at +4	at -1	at -2	at -3	at -4	at -5
A fixed	0.823	1.16	0.888	0.966	0.853	0.688	0.982	1.11	1.12
D fixed	1.69	1.71	1.48	1.29	1.42	1.62	1.5	1.39	1.15
E fixed	2.27	1.57	1.94	1.55	1.78	7.31	1.73	1.22	1.21
F fixed	1	1.05	0.773	0.942	0.858	0.397	0.748	0.805	0.908
G fixed	0.779	1.13	1.63	1.2	0.834	0.712	1.19	1.33	1.1
H fixed	1.15	0.728	0.792	0.846	0.968	0.513	0.894	0.991	0.944
I fixed	1.03	1.07	0.954	1.01	0.86	0.474	0.814	0.96	0.929
K fixed	0.396	0.545	0.448	0.59	0.5	0.4	0.598	0.719	0.892
L fixed	0.751	0.706	0.899	0.908	1.18	0.486	0.841	0.943	0.878
M fixed	1.25	0.915	0.916	0.871	1.35	0.545	1.1	1.02	0.983
N fixed	0.733	0.874	0.809	0.879	1.06	0.767	1.06	1.15	1.31
P fixed	0.522	1.07	1.32	1.32	0.592	0.459	0.982	1.09	1.03
Q fixed	0.826	0.717	0.794	0.834	1.04	0.893	0.992	0.865	0.917
R fixed	0.357	0.489	0.467	0.519	0.589	0.435	0.633	0.697	0.844
V fixed	1.05	1.18	1.02	0.959	1.26	0.501	0.924	1.02	0.978
W fixed	0.919	0.954	0.915	1.27	0.804	0.4	1.2	0.787	0.822
Y fixed	1.44	1.12	0.956	1.03	1.04	0.401	0.815	0.89	0.98
pThr fixed	3.78	1.38	1.04	1.62	1.19	1.48	1.07	0.963	0.853
pTyr fixed	4.22	1.82	1.39	1.66	1.51	0.639	1.08	1.05	0.835
